Test results reported in FireProtDB (doi:10.1016/0022-2836(92)90562-x).

B1: Ribonuclease, P00648 (parent)
chain: MMKMEGIALKKRLSWISVCLLVLVSAAGMLFSTAAKTETSSHKAHTEAQVINTFDGVADYLQTYHKLPDNYITKSEAQALGWVASKGNLADVAPGKSIGGDIFSNREGKLPGKSGRTWREADINYTSGFRNSDRILYSSDWLIYKTTDHYQTFTKIR

Variants of: B1
Conditions: Bacillus amyloliquefaciens; pH 6.3; 25 °C; Urea; Fluorescence; MES-NaOH 450 mM; reversible: yes; structure 1BNI; whole UniProt chain shown

Variant	ddG of mutation (higher = less stable)	denaturant m value	denaturant midpoint (higher = more stable)	unfolding free energy
N124A	1.45 kcal/mol	1.98 kcal/mol/M	3.7 M	7.37 kcal/mol
V57T	1.99 kcal/mol	2.07 kcal/mol/M	3.3 M	6.83 kcal/mol
V57A	3.47 kcal/mol	1.89 kcal/mol/M	2.8 M	5.35 kcal/mol
I135V	1.64 kcal/mol	1.85 kcal/mol/M	3.8 M	7.18 kcal/mol
I135A	4.02 kcal/mol	1.94 kcal/mol/M	2.4 M	4.8 kcal/mol
E76G	2.05 kcal/mol	1.84 kcal/mol/M	3.6 M	6.77 kcal/mol
Q78S	-0.07 kcal/mol	2 kcal/mol/M	4.4 M	8.89 kcal/mol
V92T	2.22 kcal/mol	1.99 kcal/mol/M	3.3 M	6.6 kcal/mol
V92A	1.17 kcal/mol	2.08 kcal/mol/M	3.6 M	7.65 kcal/mol
Y150F	0.18 kcal/mol	1.89 kcal/mol/M	4.5 M	8.64 kcal/mol
N70A	2.2 kcal/mol	1.94 kcal/mol/M	3.4 M	6.62 kcal/mol
R157A	-0.07 kcal/mol	2.03 kcal/mol/M	4.3 M	8.89 kcal/mol
I143A	3.15 kcal/mol	1.96 kcal/mol/M	2.8 M	5.67 kcal/mol
I143V	1.02 kcal/mol	1.9 kcal/mol/M	4.1 M	7.8 kcal/mol
I123A	1.66 kcal/mol	1.99 kcal/mol/M	3.6 M	7.16 kcal/mol
I123V	0.98 kcal/mol	1.89 kcal/mol/M	4.1 M	7.84 kcal/mol
I98A	4.72 kcal/mol	1.9 kcal/mol/M	2.1 M	4.1 kcal/mol
I98V	1.13 kcal/mol	2.11 kcal/mol/M	3.6 M	7.69 kcal/mol
S138A	2.41 kcal/mol	1.79 kcal/mol/M	3.5 M	6.41 kcal/mol
I72A	3.68 kcal/mol	1.85 kcal/mol/M	2.7 M	5.14 kcal/mol

Variant	ddG of mutation (higher = less stable)	denaturant m value	denaturant midpoint (higher = more stable)	unfolding free energy
I72V	0.83 kcal/mol	2 kcal/mol/M	4 M	7.99 kcal/mol
L61A	4.53 kcal/mol	1.87 kcal/mol/M	2.2 M	4.29 kcal/mol
K109R	0.32 kcal/mol	1.95 kcal/mol/M	4.3 M	8.5 kcal/mol
L136T	3.28 kcal/mol	1.78 kcal/mol/M	3.1 M	5.54 kcal/mol
L136V	0.47 kcal/mol	1.89 kcal/mol/M	4.4 M	8.35 kcal/mol
T53A	2.02 kcal/mol	1.97 kcal/mol/M	3.4 M	6.8 kcal/mol
T53G	0.61 kcal/mol	2.08 kcal/mol/M	3.9 M	8.21 kcal/mol
T63S	1.36 kcal/mol	2.03 kcal/mol/M	3.6 M	7.46 kcal/mol
T63R	-0.74 kcal/mol	1.99 kcal/mol/M	4.8 M	9.56 kcal/mol
T73A	1.67 kcal/mol	2 kcal/mol/M	3.5 M	7.15 kcal/mol
T73G	1.01 kcal/mol	2.03 kcal/mol/M	3.8 M	7.81 kcal/mol
N105A	2 kcal/mol	1.97 kcal/mol/M	3.4 M	6.82 kcal/mol
N105D	-0.31 kcal/mol	1.9 kcal/mol/M	4.8 M	9.13 kcal/mol
T146V	2.92 kcal/mol	1.84 kcal/mol/M	3.2 M	5.9 kcal/mol
K74G	0.38 kcal/mol	1.94 kcal/mol/M	4.3 M	8.44 kcal/mol
D59A	0.39 kcal/mol	1.91 kcal/mol/M	4.4 M	8.43 kcal/mol
Y71F	-0.09 kcal/mol	1.95 kcal/mol/M	4.5 M	8.91 kcal/mol
Y60A Y64A	3.96 kcal/mol	2 kcal/mol/M	2.43 M	4.86 kcal/mol
D101A	2.86 kcal/mol	1.95 kcal/mol/M	3 M	5.96 kcal/mol
D101N	1.78 kcal/mol	2.11 kcal/mol/M	3.3 M	7.04 kcal/mol

Variant	ddG of mutation (higher = less stable)	denaturant m value	denaturant midpoint (higher = more stable)	unfolding free energy
Y125F	1.14 kcal/mol	1.98 kcal/mol/M	3.8 M	7.68 kcal/mol
N131A	1.59 kcal/mol	2.04 kcal/mol/M	3.5 M	7.23 kcal/mol
D59A R157A	-0.39 kcal/mol	1.93 kcal/mol/M	4.78 M	9.21 kcal/mol
N52A	1.59 kcal/mol	2 kcal/mol/M	3.6 M	7.23 kcal/mol
D55A D59A	1.41 kcal/mol	1.78 kcal/mol/M	4.16 M	7.41 kcal/mol
D55A D59A R157A	-0.18 kcal/mol	1.94 kcal/mol/M	4.63 M	9 kcal/mol
V83A	1.68 kcal/mol	1.83 kcal/mol/M	3.9 M	7.14 kcal/mol
V83T	1.05 kcal/mol	1.95 kcal/mol/M	3.9 M	7.77 kcal/mol
D55A	0.85 kcal/mol	1.94 kcal/mol/M	4.1 M	7.97 kcal/mol
T152V	2.14 kcal/mol	1.95 kcal/mol/M	3.4 M	6.68 kcal/mol
N88D	2.62 kcal/mol	1.89 kcal/mol/M	3.2 M	6.2 kcal/mol
I156A	1.27 kcal/mol	2.15 kcal/mol/M	3.5 M	7.55 kcal/mol
I156V	0.81 kcal/mol	1.92 kcal/mol/M	4.1 M	8.01 kcal/mol
Y60A	3 kcal/mol	2.03 kcal/mol/M	2.8 M	5.82 kcal/mol
I102V	0.63 kcal/mol	1.85 kcal/mol/M	4.4 M	8.19 kcal/mol
I102T	1.24 kcal/mol	1.84 kcal/mol/M	4.1 M	7.58 kcal/mol
S139A	3.22 kcal/mol	1.78 kcal/mol/M	3.1 M	5.6 kcal/mol
Y64A	1.67 kcal/mol	2.02 kcal/mol/M	3.5 M	7.15 kcal/mol
I51A	0.75 kcal/mol	2.08 kcal/mol/M	3.8 M	8.07 kcal/mol
I51V	0.81 kcal/mol	1.88 kcal/mol/M	4.2 M	8.01 kcal/mol
